Experimental findings from article PMC5862564 are described below.

For assay [1], the target named is SKAP2N1 (SKAP2 with Gaussia princeps luciferase fragment 1 at its N-terminal end) (UniProt O75563). The experiment in a line: GPCA. Conditions: read off a plot.
In assay [2] the target is FYB fused N-terminally to Gaussia princeps luciferase fragment 1, O15117-3. The experiment in a line: GPCA. The note with it: read off a plot.
Another assay deals with HaloTag-FYB (human) (UniProt O15117). The experiment in a line: pull-down + split reporter (BiFC, NanoBiT); HaloTag-fused hook captured from HEK293T lysate on HaloLink resin, 6 washes with PBS 0.1% Tween; luminescence of the co-expressed GPCA pair on the resin; ratio of cells with the HaloTag vector to cells with the pCNeo vector expressing the same protein.

Several values for one entry are separate records, joined by “and”; a condition that tells them apart may be missing. Identical values can stand only once.

FYB fused N-terminally to Gaussia princeps luciferase fragment 1, O15117-3, sequence (O15117 other isoform, or with tags, fused parts or gaps): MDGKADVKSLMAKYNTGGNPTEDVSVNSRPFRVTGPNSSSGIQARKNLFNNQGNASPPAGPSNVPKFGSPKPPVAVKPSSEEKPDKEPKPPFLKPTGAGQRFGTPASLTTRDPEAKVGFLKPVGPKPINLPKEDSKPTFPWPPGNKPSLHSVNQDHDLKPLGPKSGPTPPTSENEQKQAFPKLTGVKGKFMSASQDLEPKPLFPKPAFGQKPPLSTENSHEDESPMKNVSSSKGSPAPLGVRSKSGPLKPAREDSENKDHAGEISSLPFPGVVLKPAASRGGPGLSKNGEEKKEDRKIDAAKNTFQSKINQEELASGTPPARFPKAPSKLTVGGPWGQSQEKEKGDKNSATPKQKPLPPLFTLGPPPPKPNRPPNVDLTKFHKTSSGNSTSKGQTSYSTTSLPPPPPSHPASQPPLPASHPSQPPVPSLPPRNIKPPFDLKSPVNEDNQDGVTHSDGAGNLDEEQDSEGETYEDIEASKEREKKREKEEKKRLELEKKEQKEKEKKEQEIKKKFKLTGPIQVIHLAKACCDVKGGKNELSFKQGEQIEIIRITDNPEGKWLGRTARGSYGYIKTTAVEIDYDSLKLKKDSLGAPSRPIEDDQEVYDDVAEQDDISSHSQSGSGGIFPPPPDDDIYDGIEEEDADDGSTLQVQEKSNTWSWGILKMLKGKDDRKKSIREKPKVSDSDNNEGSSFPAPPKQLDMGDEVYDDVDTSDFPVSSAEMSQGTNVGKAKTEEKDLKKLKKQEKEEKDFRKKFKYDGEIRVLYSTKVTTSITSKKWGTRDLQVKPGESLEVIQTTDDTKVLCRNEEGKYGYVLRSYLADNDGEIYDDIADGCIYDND

On to SKAP2 V24D; F27D; V28E, for which the response in assay [1] (with A23187, parent: est. 320) is 4.9 NLR; in assay [1] (without A23187 (NT), parent: est. 240) it was 2.2 NLR; in assay [2] (HCK-P249A 0 ng, with A23187, parent: est. 850), 2000 NLR; in assay [2] (HCK-P249A 0 ng, without A23187, parent: est. 280), 1000 NLR; in assay [2] (HCK-P249A 25 ng, with A23187, parent: est. 1000), 2500 NLR; in assay [2] (HCK-P249A 25 ng, without A23187, parent: est. 190), 570 NLR. In addition, the response in assay [2] (HCK-P249A 50 ng, with A23187, parent: est. 730) was found to be 1900 NLR; in assay [2] (HCK-P249A 50 ng, without A23187, parent: est. 540) it was 1400 NLR; in assay [2] (HCK-P249A 100 ng, with A23187, parent: est. 480), 1300 NLR; in assay [2] (HCK-P249A 100 ng, without A23187, parent: est. 570), 1500 NLR; in assay [2] (with A23187, parent: est. 760) it was 1500 NLR; in assay [2] (without A23187 (NT), parent: est. 390) it was 540 NLR.
Take “SKAP2 homo-dimer of two hemi-luciferase-fused SKAP2 (the pair generating the luciferase signal) (from UniProt O75563 1-359) (complex)”: in the assay with HaloTag-FYB (human), the luminescence ratio (HaloTag vector to pCNeo control) was 49.1 and 135 and 51.8.
Same read-out and setting: with “SKAP2-DIMPH hetero-dimer of hemi-luciferase-fused DIMPH and hemi-luciferase-fused SKAP2 (from UniProt O75563 1-222; O75563 1-359) (complex)” the figure was 125 and 308 and 160.
